Source: patent US20240034757A1 (OXFORD UNIVERSITY INNOVATION, published 2024)
Numbering of substitutions follows the chain as printed. Where two headings read alike, the source gives them in different places.

T1: CXCL14_HUMAN (human, UniProt O95715 35-111)
T1 sequence: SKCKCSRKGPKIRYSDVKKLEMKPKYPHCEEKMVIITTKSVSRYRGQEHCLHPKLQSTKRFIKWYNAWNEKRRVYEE

T2: CXCL7_HUMAN (human, UniProt P02775 59-128)
T2 sequence: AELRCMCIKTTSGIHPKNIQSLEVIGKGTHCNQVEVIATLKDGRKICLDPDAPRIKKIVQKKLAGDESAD

T3: CXCL8_HUMAN (human, UniProt P10145 28-99)
T3 sequence: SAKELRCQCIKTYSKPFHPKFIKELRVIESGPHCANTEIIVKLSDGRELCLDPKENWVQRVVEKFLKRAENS

T4: CXCL4_HUMAN (human, UniProt P02776 32-101)
T4 sequence: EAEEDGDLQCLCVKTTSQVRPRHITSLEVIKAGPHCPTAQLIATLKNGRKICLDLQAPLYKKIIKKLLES

T5: CXCL5_HUMAN (human, UniProt P42830 41-114)
T5 sequence: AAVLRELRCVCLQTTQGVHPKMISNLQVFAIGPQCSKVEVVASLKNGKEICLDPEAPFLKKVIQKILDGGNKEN

T6: CXCL11_HUMAN (human, UniProt O14625 22-94)
T6 sequence: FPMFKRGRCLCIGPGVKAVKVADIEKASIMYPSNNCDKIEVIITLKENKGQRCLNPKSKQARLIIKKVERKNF

T7: P467_RHIPU (Rhipicephalus pulchellus, UniProt L7M8Z8 22-127)
T7 sequence: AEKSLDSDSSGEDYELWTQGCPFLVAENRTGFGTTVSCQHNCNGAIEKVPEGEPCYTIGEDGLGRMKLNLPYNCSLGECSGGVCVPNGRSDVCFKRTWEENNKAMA

T8: P546_AMBCA (Amblyomma cajennense, UniProt A0A023FBW7 22-118)
T8 sequence: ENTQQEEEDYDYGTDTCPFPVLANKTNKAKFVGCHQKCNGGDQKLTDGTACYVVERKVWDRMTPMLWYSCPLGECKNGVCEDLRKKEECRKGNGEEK

T9: P1180_AMBTR (Amblyomma triste, UniProt A0A023G6B6 26-116)
T9 sequence: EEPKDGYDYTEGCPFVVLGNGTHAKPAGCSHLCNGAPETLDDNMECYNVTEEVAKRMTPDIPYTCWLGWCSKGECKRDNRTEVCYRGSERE

T10: P1181_AMBMA (Amblyomma maculatum, UniProt G3MIX6 26-115)
T10 sequence: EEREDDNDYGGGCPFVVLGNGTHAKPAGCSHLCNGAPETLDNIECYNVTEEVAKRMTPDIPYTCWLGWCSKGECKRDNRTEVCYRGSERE

T11: P1182_AMBMA (Amblyomma maculatum, UniProt G3MJ83 27-115)
T11 sequence: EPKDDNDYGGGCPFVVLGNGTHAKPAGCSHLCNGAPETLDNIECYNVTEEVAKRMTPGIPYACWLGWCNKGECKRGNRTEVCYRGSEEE

T12: P1183_AMBTR (Amblyomma triste, UniProt A0A023G9N9 26-115)
T12 sequence: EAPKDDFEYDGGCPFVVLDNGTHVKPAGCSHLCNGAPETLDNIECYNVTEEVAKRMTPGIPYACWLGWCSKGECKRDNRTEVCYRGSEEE

T13: P1243_AMBAM (Amblyomma americanum, UniProt A0A0C9S461 26-123)
T13 sequence: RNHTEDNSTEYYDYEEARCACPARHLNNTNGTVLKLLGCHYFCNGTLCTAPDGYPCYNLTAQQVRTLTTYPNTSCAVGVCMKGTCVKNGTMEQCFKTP

T14: P672_RHIPU (Rhipicephalus pulchellus, UniProt L7MC74 22-125)
T14 sequence: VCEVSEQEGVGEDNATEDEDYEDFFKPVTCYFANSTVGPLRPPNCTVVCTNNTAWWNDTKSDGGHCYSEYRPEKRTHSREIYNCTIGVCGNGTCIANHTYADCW

T15: P974_AMBCA (Amblyomma cajennense, UniProt A0A023FDY8 22-118)
T15 sequence: T8 sequence with E8Q, S69E, E88D

T16: P985_AMBPA (Amblyomma parvum, UniProt A0A023FT45 25-132)
T16 sequence: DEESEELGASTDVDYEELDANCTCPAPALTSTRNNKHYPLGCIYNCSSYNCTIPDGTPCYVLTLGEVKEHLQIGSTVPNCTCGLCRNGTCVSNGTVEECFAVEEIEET

T17: P991_AMBCA (Amblyomma cajennense, UniProt A0A023FFD0 29-136)
T17 sequence: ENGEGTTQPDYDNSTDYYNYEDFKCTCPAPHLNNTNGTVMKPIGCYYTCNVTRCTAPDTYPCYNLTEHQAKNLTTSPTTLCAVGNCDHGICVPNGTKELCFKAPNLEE

T18: P1134_IXORI (Ixodes ricinus, UniProt A0A0K8RAI0 32-135)
T18 sequence: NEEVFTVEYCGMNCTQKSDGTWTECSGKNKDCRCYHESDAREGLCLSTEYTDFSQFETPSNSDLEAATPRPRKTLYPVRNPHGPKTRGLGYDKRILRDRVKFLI

T19: CXCL10_HUMAN (human, UniProt P02778 22-98)
T19 sequence: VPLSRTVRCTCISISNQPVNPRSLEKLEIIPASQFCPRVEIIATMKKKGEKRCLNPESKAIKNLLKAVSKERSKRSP

T20: CXCL13_HUMAN (human, UniProt O43927 23-109)
T20 sequence: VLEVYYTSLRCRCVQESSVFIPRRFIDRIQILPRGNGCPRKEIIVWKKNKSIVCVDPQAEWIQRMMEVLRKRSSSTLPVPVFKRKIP

T21: CXCL6_HUMAN (human, UniProt P80162 38-114)
T21 sequence: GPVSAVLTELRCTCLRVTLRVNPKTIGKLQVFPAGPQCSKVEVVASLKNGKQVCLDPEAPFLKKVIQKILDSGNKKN

T22: CCL5_HUMAN (human, UniProt P13501 24-91)
T22 sequence: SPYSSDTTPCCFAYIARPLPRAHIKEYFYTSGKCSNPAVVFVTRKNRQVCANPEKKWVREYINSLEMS

B1: P983_AMBCA (other)
chain: EDTGTEDDFDYGNTGCPFPVLGNYKSNMTKPVGCKNKCGSGYEVLNDTTPCYVIDQKVFNNMVPLRQYSKCPLGFCENGECKPNDQAEDCYKGREEQK
B2: P1090_IXORI (other)
chain: GSKELSGPESSENSIEAAFCDTNCTEGTDGVWSGCSAGCFCVHVGNSTVGRCMTFNGVDGG
B3: CCL3L1_HUMAN (ligand)
chain: APLAADTPTACCFSYTSRQIPQNFIADYFETSSQCSKPSVIFLTKRGRQVCADPSEEWVQKYVSDLELSA
B4: CXCL9_HUMAN (ligand)
chain: TPVVRKGRCSCISTNQGTIHLQSLKDLKQFAPSPSCEKIEIIATLKNGVQTCLNPDSADVKELIKKWEKQVSQKKKQKNGKKHQKKKVLKVRKSQRSRQKKTT
B5: P1170_IXORI (other)
chain: LGDEDQLFSVEYCGTNCTQQDDGKWTPCSGKNGKCKCYHEDGKRYGLCLYTEYTDFSQYPNPEGSEIENTRPRP
B6: CCL13_HUMAN (ligand)
chain: not shown
B7: CCL14_HUMAN (ligand)
chain: TESSSRGPYHPSECCFTYTTYKIPRQRIMDYYETNSQCSKPGIVFITKRGHSVCTNPSDKWVQDYIKDMKEN
B8: CCL23_HUMAN (ligand)
chain: RVTKDAETEFMMSKLPLENPVLLDRFHATSADCCISYTPRSIPCSLLESYFETNSECSKPGVIFLTKKGRRFCANPSDKQVQVCMRMLKLDTRIKTRKN
B9: P1063_AMBTR (other)
chain: QSEVGKNVPGCGDTETLEAPPQEKPPYYEYKDEEGCTQKVLESWFQAGERSTGRGQKKRGHGRRPSRVLRTVDCRKNCTVGITALPDGHLCLVPRGDPFTRGGAIKYGCYLGDCASGHCQHRYETVSCRLPAPDTTAKPYYVTPEK

How the values were obtained:
[1] = molecular target: CCL2_HUMAN (human, UniProt P13500 24-99); experiment: cell-based or functional assay
Sequence of CCL2_HUMAN (P13500 24-99 limits assumed): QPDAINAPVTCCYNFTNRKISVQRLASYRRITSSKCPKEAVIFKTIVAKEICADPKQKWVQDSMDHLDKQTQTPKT

[2] = molecular target: B4; experiment: BLI
[3] = molecular target: CXCL12_HUMAN (human, UniProt P48061 22-89); experiment: BLI
Sequence of CXCL12_HUMAN (P48061 22-89 limits assumed): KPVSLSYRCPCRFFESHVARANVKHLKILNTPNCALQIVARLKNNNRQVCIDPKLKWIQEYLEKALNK

[4] = molecular target: T1, CXCL14_HUMAN; experiment: BLI
[5] = molecular target: T2, CXCL7_HUMAN; experiment: BLI [Cont.]
[6] = molecular target: T3, CXCL8_HUMAN; experiment: BLI [Cont.]
[7] = molecular target: T4, CXCL4_HUMAN; experiment: BLI [Cont.]
[8] = molecular target: T5, CXCL5_HUMAN; experiment: BLI [Cont.]
[9] = molecular target: T6, CXCL11_HUMAN; experiment: yeast surface display FACS re-test
[10] = molecular target: T7, P467_RHIPU; experiment: BLI
[11] = molecular target: T8, P546_AMBCA; experiment: BLI
[12] = molecular target: T9, P1180_AMBTR; experiment: BLI
[13] = molecular target: T10, P1181_AMBMA; experiment: BLI
[14] = molecular target: T11, P1182_AMBMA; experiment: BLI
[15] = molecular target: T12, P1183_AMBTR; experiment: BLI
[16] = molecular target: T13, P1243_AMBAM; experiment: BLI
[17] = molecular target: T14, P672_RHIPU; experiment: BLI
[18] = molecular target: T15, P974_AMBCA; experiment: BLI
[19] = molecular target: B1; experiment: BLI
[20] = molecular target: T16, P985_AMBPA; experiment: BLI
[21] = molecular target: T17, P991_AMBCA; experiment: BLI
[22] = molecular target: T13, P1243_AMBAM; experiment: BLI; remark: listed apart in the source
[23] = molecular target: BK1.1FITC; experiment: fluorescence polarisation, 50 nM peptide
[24] = molecular target: T18, P1134_IXORI; experiment: BLI
[25] = molecular target: T19, CXCL10_HUMAN; experiment: BLI
[26] = molecular target: T20, CXCL13_HUMAN; experiment: BLI
[27] = molecular target: T21, CXCL6_HUMAN; experiment: BLI [Cont.]
[28] = molecular target: T3, CXCL8_HUMAN; experiment: yeast surface display FACS re-test
[29] = molecular target: T22, CCL5_HUMAN; experiment: yeast surface display FACS

Binder | Kd [10] [nM] | Kd [11] [nM] | Kd [12] [nM] | Kd [13] [nM] | Kd [14] [nM] | Kd [16] [nM] | Kd [18] [nM] | Kd [19] [nM] | Kd [21] [nM] | binding result [23] | further results
B1 | – | – | – | – | – | – | – | – | – | – | IC50, THP1 cell migration [1]: 5.95 nM
B2 | – | – | – | – | – | – | – | – | – | – | binding result [2]: no binding (tested: 300 nM); binding result [3]: no binding (tested: 300 nM); binding result [4]: no binding (tested: 300 nM); binding result [5]: no binding (tested: 300 nM); binding result [6]: no binding (tested: 300 nM); binding result [7]: no binding (tested: 300 nM); Kd [8]: 43 nM; % cells over threshold fluorescence [9]: 32%
B3 | 0.524 | 15 | 2.2 | 3.3 | 9.5 | 5.05 | 13.1 | 2.1 | 1.4 | no binding (tested: 1 µM) | Kd [15]: 110 nM; Kd [17]: 2.7 nM; Kd [20]: 7.5 nM; Kd [22]: 5.04 nM
B4 | – | – | – | – | – | – | – | – | – | – | binding result [24]: no binding (tested: 300 nM)
B5 | – | – | – | – | – | – | – | – | – | – | binding result [2]: no binding (tested: 300 nM); binding result [25]: no binding (tested: 300 nM); binding result [3]: no binding (tested: 300 nM); binding result [26]: no binding (tested: 300 nM); binding result [4]: no binding (tested: 300 nM); binding result [8]: no binding (tested: 300 nM); binding result [27]: no binding (tested: 300 nM); % cells over threshold fluorescence [28]: 81%
B6 | 2.56 | 13 | 9 | 19 | 56 | 0.788 | 22.9 | 17 | 0.419 | no binding (tested: 1 µM) | Kd [15]: 5.7 nM; Kd [20]: 89 nM
B7 | 4.13 | 28 | 4.4 | 47 | 50 | 0.816 | 49.1 | 81 | 0.43 | no binding (tested: 1 µM) | Kd [17]: 5.5 nM
B8 | – | – | – | – | – | – | – | – | – | no binding (tested: 1 µM) | –
B9 | – | – | – | – | – | – | – | – | – | – | binding result [29]: binds
